Laboratory results from article PMC6899042, “Perturbation of the titin/MURF1 signaling complex is associated with hypertrophic cardiomyopathy in a fish model and in human patients” (Disease Models & Mechanisms, 2019).

Molecular target: T1, myc-tagged MURF1 (muscle-specific ring finger protein 1), full length (human, UniProt Q969Q1-1 1-353)
T1 construct: MURF1 (muscle-specific ring finger protein 1), human, full-length cDNA from bp137 to bp1198 of GenBank NM_032588, printed as aa1-aa354; Cloned into myc-tagged pCMV-Tag3. bp137-bp1198 is 354 codons, which may count the stop codon; source: COS-7 cells, transfected, in lysate (cell line named only for the A168-170 experiment)
Experiment: co-IP; GFP-tagged TTN fragment co-transfected with myc-tagged MURF1 (COS-7 cells named for A168-170); IP with anti-myc antibody (Catch and Release v2.0 Reversible Immunoprecipitation System), Western blot with anti-GFP; densitometry normalised to the input amount of GFP-TTN, WT set to 1.00 AU
Settings: partners not purified

T1 sequence (Q969Q1 whole entry, the tested form may be a part): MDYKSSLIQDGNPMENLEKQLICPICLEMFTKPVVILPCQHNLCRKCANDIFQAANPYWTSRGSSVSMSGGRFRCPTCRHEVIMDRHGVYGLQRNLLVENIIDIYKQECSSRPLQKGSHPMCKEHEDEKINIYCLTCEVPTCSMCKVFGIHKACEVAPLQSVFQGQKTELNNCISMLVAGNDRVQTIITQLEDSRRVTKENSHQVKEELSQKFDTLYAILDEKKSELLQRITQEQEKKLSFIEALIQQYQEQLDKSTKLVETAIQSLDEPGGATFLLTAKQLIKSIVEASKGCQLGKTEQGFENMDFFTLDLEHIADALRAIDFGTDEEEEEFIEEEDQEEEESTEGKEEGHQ

B1: GFP-tagged E29783V-TTN-A156 (titin Ig domain A156 with the equivalent of the medaka nsh mutation D23186V) (domain or fragment, human, UniProt Q8WZ42-11 29735-29829, looked up)
chain: LPTIDLSTMPQKTIHVPAGRPVELVIPIAGRPPPAASWFFAGSKLRESVRVTVETHTKVAKLTIRETTIRDTGEYTLELKNVTGTTSETIKVIIL
notes: numbers count on: the protein encoded by GenBank NM_133378; Cloned into pEGFP-C1; mutation made by primer-mediated mutagenesis; also called mutant-TTN-A156; nsh Ig domain
- co-precipitated amount relative to WT TTN-A156 (1.00 AU): 9.23 AU

B2: GFP-tagged D30994N-TTN-A168-170 (titin domains A168-A170 with the HCM-associated mutation D30994N) (domain or fragment, human, UniProt Q8WZ42-11 30928-31228, looked up)
chain: PHFKEELRNLNVRYQSNATLVCKVTGHPKPIVKWYRQGKEIIADGLKYRIQEFKGGYHQLIIASVTNDDATVYQVRATNQGGSVSGTASLEVEVPAKIHLPKTLEGMGAVHALRGEVVSIKIPFSGKPDPVITWQKGQDLIDNNGHYQVIVTRSFTSLVFPNGVERKDAGFYVVCAKNRFGIDQKTVELDVADVPDPPRGVKVSDVSRDSVNLTWTEPASDGGSKITNYIVEKCATTAERWLRVGQARETRYTVINLFGKTSYQFRVIAENKFGLSKPSEPSEPTITKEDKTRAMNYDEEV
notes: numbers count on: the protein encoded by GenBank NM_133378; Cloned into pEGFP-C1; the mutation was found in a family with HCM; also called D30994N mutant TTN-A168-170; source: COS-7 cells, transfected, in lysate
- co-precipitated amount relative to WT TTN-A168-170 (1.00 AU): 1.58 AU

B3: GFP-tagged WT-TTN-A169 (titin Ig domain A169) (domain or fragment, human, UniProt Q8WZ42-11 31022-31119, looked up)
chain: PAKIHLPKTLEGMGAVHALRGEVVSIKIPFSGKPDPVITWQKGQDLIDNNGHYQVIVTRSFTSLVFPNGVERKDAGFYVVCAKNRFGIDQKTVELDVA
notes: numbers count on: the protein encoded by GenBank NM_133378; Cloned into pEGFP-C1; also called A169 domain
- co-precipitated amount relative to WT TTN-A168 (1.00 AU): 6.69 AU

B4: GFP-tagged D30994N-TTN-A168 (titin Ig domain A168 with the HCM-associated mutation D30994N) (domain or fragment, human, UniProt Q8WZ42-11 30928-31021, looked up)
chain: PHFKEELRNLNVRYQSNATLVCKVTGHPKPIVKWYRQGKEIIADGLKYRIQEFKGGYHQLIIASVTNDDATVYQVRATNQGGSVSGTASLEVEV
notes: numbers count on: the protein encoded by GenBank NM_133378; Cloned into pEGFP-C1; the mutation was found in a family with HCM; also called D30994N mutant TTN-A168
- co-precipitated amount relative to WT TTN-A168 (1.00 AU): 3.06 AU

B5: GFP-tagged S30186A-TTN-A160-161 (titin domains A160-161 with the HCM-associated mutation S30186A) (domain or fragment, human, UniProt Q8WZ42-11 30134-30326, looked up)
chain: PDYELDERYQEGIFVRQGGVIRLTIPIKGKPFPICKWTKEGQDISKRAMIATAETHTELVIKEADRGDSGTYDLVLENKCGKKAVYIKVRVIGSPNSPEGPLEYDDIQVRSVRVSWRPPADDGGADILGYILERREVPKAAWYTIDSRVRGTSLVVKGLKENVEYHFRVSAENQFGISKPLKSEEPVTPKTPL
notes: numbers count on: the protein encoded by GenBank NM_133378; Cloned into pEGFP-C1; the mutation was found in a family with HCM
- co-precipitated amount relative to WT TTN-A160-161 (1.00 AU): 3.11 AU
